B1: GST-EBP50-CT (domain or fragment)
chain: KENSREALAEAALESPRPALVRSASSDTSEELNSQDSPPKQDSTAPSSTSSSDPILDFNISLAMAKERAHQKRSSKRAPQMDWSKKNELFSNL
B2: GST-ICAM2-CT (domain or fragment)
chain: FGQHLRQQRMGTYGVRAAWRRLPQAFRP

Biological target: His-ezrin WT (UniProt P15311 1-586)
Test: pull-down

His-ezrin WT, sequence (P15311 whole entry): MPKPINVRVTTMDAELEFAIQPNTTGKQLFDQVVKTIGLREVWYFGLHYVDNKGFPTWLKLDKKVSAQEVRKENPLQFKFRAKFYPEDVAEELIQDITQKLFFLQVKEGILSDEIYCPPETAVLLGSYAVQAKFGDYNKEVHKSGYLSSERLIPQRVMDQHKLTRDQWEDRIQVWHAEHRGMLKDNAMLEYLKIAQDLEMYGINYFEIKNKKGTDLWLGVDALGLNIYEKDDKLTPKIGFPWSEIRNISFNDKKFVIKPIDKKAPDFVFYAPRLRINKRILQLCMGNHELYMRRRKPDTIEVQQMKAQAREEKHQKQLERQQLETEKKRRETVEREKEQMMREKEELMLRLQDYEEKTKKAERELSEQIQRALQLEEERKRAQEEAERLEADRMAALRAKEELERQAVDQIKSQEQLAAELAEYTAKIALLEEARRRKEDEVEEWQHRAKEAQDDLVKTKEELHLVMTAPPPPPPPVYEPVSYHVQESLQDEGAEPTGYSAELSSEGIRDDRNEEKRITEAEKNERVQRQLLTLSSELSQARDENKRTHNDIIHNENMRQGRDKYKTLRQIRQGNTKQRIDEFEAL

Binder | binding result
B1 | binds
B2 | binds
